Results reported in publication PMC8041999.

Tests used:
Test in all cases: multiplexed single-antigen bead assay (Luminex); 5 µg PE-conjugated KIR tetramers, 30 min at room temperature, with LABScreen HLA Class I Single Antigen beads; MFI normalised to the highest value of each experiment
[1] = molecular target: bead-bound HLA-C*17:01 presenting a broad repertoire of peptides (human)
[2] = molecular target: bead-bound HLA-C*14:02 presenting a broad repertoire of peptides (human)
[3] = molecular target: bead-bound HLA-C*15:02 presenting a broad repertoire of peptides (human)

Sequence of soluble tetrameric form of KIR2DL2 (PE-conjugated KIR tetramer) (P43627 22-245): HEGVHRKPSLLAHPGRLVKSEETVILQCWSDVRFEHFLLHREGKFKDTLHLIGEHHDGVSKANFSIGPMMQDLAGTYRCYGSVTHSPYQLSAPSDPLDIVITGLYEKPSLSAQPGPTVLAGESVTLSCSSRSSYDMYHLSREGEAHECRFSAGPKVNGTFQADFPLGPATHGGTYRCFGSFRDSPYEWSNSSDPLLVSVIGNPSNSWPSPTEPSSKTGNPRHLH
Sequence of soluble tetrameric form of KIR2DL3 (PE-conjugated KIR tetramer) (P43628 22-245): as the sequence (P43627 22-245) above, with R16P, E35Q, C148R, I200T, K216E counted along it

| percent of the top avidity [1] [%] | percent of the avidity of the top binding allomorph [2] [%] | percent of the top avidity [3] [%] | percent of the maximum avidity [2] [%] | Substance |
| --- | --- | --- | --- | --- |
| 55 | 14.7 | 55 | – | soluble tetrameric form of KIR2DL2 (PE-conjugated KIR tetramer) (from UniProt P43627 22-245) (receptor) |
| – | – | – | 43 | soluble tetrameric form of KIR2DL3 (PE-conjugated KIR tetramer) (from UniProt P43628 22-245) (receptor) |
